Measured values as given in US20250215467A1, “L-THREONINE TRANSALDOLASES AND USES THEREOF” (University of Delaware, priority 2022, published 2025).

Assays:
[1] = In vitro assay over 20 h with HPLC analysis (amino acid substrate specificity, diastereomeric excess); type: biochemical; details: 3 as aldehyde substrate
Method: (§1) Metabolites of interest were quantified via high-performance liquid chromatography (HPLC) using an Agilent 1260 Infinity model equipped with a Zorbax Eclipse Plus-C18 column. To quantify aldehyde and β-OH-nsAAs, an initial mobile phase of solvent A/B=95/5 was used (solvent A, water+0.1% TFA; solvent B, acetonitrile+0.1% TFA) and maintained for 5 min. A gradient elution was performed (A/B) as follows: gradient from 95/5 to 50/50 for 5-12 min, gradient from 50/50 to 0/100 for 12-13 min, and gradient from 0/100 to 95/5 for 13-14 min. A flow rate of 1 mL min-1 was maintained, and absorption was monitored at 210, 250 and 280 nm.
We performed an in vitro assay over 20 h using 3 as the aldehyde substrate and either L-Thr, Glycine (Gly), or L-Serine (L-Ser) as the candidate amino acid. Since the TTA-ADH coupled assay is specific to L-Thr, we analyzed TTA activity via HPLC with a chemically synthesized β-OH-nsAA standard for the assumed product from 3.

E. coli RARE strain = assay: CAR-TTA coupled production in aerobically growing E. coli RARE; type: cell-based, Escherichia coli; details: coupled to NiCAR, 2 mM acid, HPLC after 20 h
Method: For the CAR-TTA coupled assay, the strains transformed with a plasmid expressing a TTA and a second plasmid expressing a CAR were grown under identical conditions with the addition of 34 μg/mL chloramphenicol (Cm) to maintain the additional plasmid. Further, 0.2 nM aTc and 1 mM IPTG were added to induce protein expression and 2 mM aldehyde, or acid was added at the time of induction. Following induction, the cultures were grown for 20 h at 30° C. while shaking at 1000 RPM with product concentrations measured via supernatant sampling and submission to HPLC.
Finally, to partially address the toxicity of supplemented aldehydes in fermentative contexts, we investigated whether we could couple a TTA to a carboxylic acid reductase (CAR) to create a steady and low-level supply of aldehydes biosynthesized from carboxylic acid precursors. […]
With the promise of the CAR-TTA coupling, we wanted to investigate the generalizability of this pathway to produce a β-OH-nsAA that has a bio-orthogonal conjugation handle. […] Finally, given the potential to produce novel peptide or protein products in cells, we wanted to confirm the activity of this cascade in growing cells, which was successful for all CAR-TTA pairings with MavCAR producing the highest titer determined by product peak area after 20 h (FIG. 20d). […]

wild-type E. coli MG1655 = assay: β-OH-nsAA biosynthesis during aerobic fermentation in wild-type E. coli MG1655; type: cell-based, Escherichia coli; details: SUMO-tagged construct, 1 mM 3, 20 h
Method: as §1
For screening TTA activity in aerobically growing cells, we inoculated strains transformed with plasmids expressing TTAs into 300 μL volumes of MOPS EZ Rich media in a 96-deep-well plate with appropriate antibiotic added to maintain plasmids (50 μg/mL kanamycin (Kan)). Cultures were incubated at 37° C. with shaking at 1000 RPM and an orbital radius of 1.25 mm until an OD600 of 0.5-0.8 was reached. OD600 was measured using a SPECTRAMAX® i3× plate reader. At this point, the TTAs were induced with addition of 0.2 nM aTc for TTA expression. Then, 2 h following induction of the TTAs, 1 mM aldehyde was added to the culture. Cultures were then incubated over 20 h at 30° C. with metabolite concentration measured via supernatant sampling and submission to HPLC. […]

B1: PbTTA: L-threonine transaldolase, SEQ ID NO: 16, Parachlamydiales bacterium, MBN2478762.1 (protein, listed as Parachlamydiales bacterium)
chain: METSLKDFETILHLINKEEIDSNDTIHMTANENIMSKLSKHYLKSTLSYRYHVGMFDDQKNLTVSRSCLIKNSLMLRCLSPIFLLEQQAREYVKKMFFAEYADFRPLSGMHTVFCILSTLTKPNDRVYVFTTESVGHAATVSLLKSLGRKVSFIPFCEKKLDIDLEKLSKQILIEKPNAILFDFGTPFYPLPIREIREIVGNDVKMIYDASHVLGLIAGGQFQNPLLEGCDVLIGNTHKTFPGPQKGMILYKNKSLGKEIATEIFKSAISAQHTHHAIALYVTIIEMYIHGKEYANQIIKNNHALSQALINEGFKIFKRKNQFSLSHMIAITGDFPIDHHVACADLHNSNISTNSRILYDFPAVRIGVQEVTRKGMKEKDMVQLAKFFKEIILDRKNISSKIKEFNNKFNSIEYSLDEIYEKLF
For B1, the “β-OH-nsAA formation using L-Ser or Gly” value [1] was “no β-OH-nsAA formation”, the “β-OH-nsAA production from 4-formyl benzoic acid” value (E. coli RARE strain) was “observed a peak corresponding to the β-OH-nsAA” and the β-OH-nsAA titer (wild-type E. coli MG1655; MG1655, 100 mM L-Thr supplemented) was 0.47 ± 0.04 mM. It also gave a β-OH-nsAA titer (wild-type E. coli MG1655; MG1655, physiological levels of L-Thr) of 0.09 ± 0.01 mM.
